From patent US20230192841A1 (NANJING LEGEND BIOTECH, published 2023)

Target: T1, human Claudin18.2 (human, UniProt P56856-2 1-261)
T1 construct: whole, on cells; expressed on Dubca, HEK293T, PANC1 cells by lentiviral transduction; endogenous on NUGC4 and KATOIII cells; also called huCLDN18.2; CLDN18.2
Assay: phage ELISA and cell binding of phage supernatant, HEK293T.huCLDN18.2.Luc cells
Protocol: Phage ELISA was performed to identify clones specific to the target antigens. Individual output phage clones were grown in 96-deep-well plates and rescued by M13KO7 helper phage overnight. To identify clones that bound to antigen proteins, 96-well ELISA microtiter plates were coated with recombinant human HEK293T.huCLDN18.1.Luc and HEK293T.huCLDN18.2.Luc cells respectively in coating buffer overnight at 4° C., and the plates were then blocked with blocking buffer. After blocking, approximately 50 µL per well of phage supernatant from overnight cell culture was added to the plates for 1.5-hour incubation at 4° C. The plates were washed four times, and the HRP-conjugated anti-M13 monoclonal antibody was added to the plates for 45-minute incubation at 4° C. The plates were again washed five times and substrate solution was added to the wells for color developing. Absorbance at 450 nm was measured for each well.
To further identify clones that bind HEK293T.huCLDN18.2.Luc cells, the HEK293T.CLDN18.2.Luc cells were blocked with blocking buffer at room temperature for 1 hour. After blocking, approximately 20 µL per well of phage supernatant from overnight cell culture was added to the cell solutions for 1-hour incubation at room temperature. […] The absorption was measured at 450 nm.

B1: VHH182512 (VHH)
VHH: EVQLVESGGGSVQAGGSLTLSCEASRSTANMAWFRQGPGKEREGVAAAHSDGSTKYADSVKGRFTISKDNGKNTLYLRMNGLKPEEGVMYYCAARGSPWWNSVVALESYAYSYWGQGTQVTVSS
B1: binds.
